Legend:
human FcRn (human) [1] = biological target: human FcRn (human) (UniProt P55899); assay: MSD, pH 6 [cont'd]
[2] = biological target: human FcγRIIa (H131 allele) (human) (UniProt P12318); assay: MSD
[3] = biological target: human FcγRIIa (R131 allele) (human) (UniProt P12318); assay: MSD
human FcγRIIb (human) [4] = biological target: human FcγRIIb (human) (UniProt P31994); assay: MSD
human C1q (human) = human C1q (human) (UniProt P02745); assay: MSD [cont'd]
[5] = biological target: human FcγRIIIa (V158 allele) (human) (UniProt P08637); assay: MSD [cont'd]
[6] = biological target: human FcγRIIIa (F158 allele) (human) (UniProt P08637); assay: MSD [cont'd]
human FcγRIIIb (human) [7] = biological target: human FcγRIIIb (human) (UniProt O75015); assay: MSD electrochemiluminescence binding assay; column IIIB
[8] = biological target: human FcγRIIIa (F158 allele) (human) (UniProt P08637); assay: MSD electrochemiluminescence binding assay; column IIIA_F
[9] = biological target: human FcγRIIa (R131 allele) (human) (UniProt P12318); assay: MSD electrochemiluminescence binding assay; column IIA_R
[10] = biological target: human FcγRIIIa (V158 allele) (human) (UniProt P08637); assay: MSD electrochemiluminescence binding assay; column IIIA_V
human FcγRIIb (human) [11] = biological target: human FcγRIIb (human) (UniProt P31994); assay: MSD electrochemiluminescence binding assay; column IIB
human FcRn (human) [12] = biological target: human FcRn (human) (UniProt P55899); assay: MSD electrochemiluminescence binding assay; column FcRn
[13] = biological target: human FcγRIIa (H131 allele) (human) (UniProt P12318); assay: MSD electrochemiluminescence binding assay; column IIA_H
[14] = biological target: human FcγRIIIa (V158 allele) (human) (UniProt P08637)
human FcγRIIIb (human) [15] = biological target: human FcγRIIIb (human) (UniProt O75015); assay: MSD
[16] = biological target: human FcγRIIIa (V158 allele) (human) (UniProt P08637); assay: MSD
[17] = biological target: human FcγRIIIa (F158 allele) (human) (UniProt P08637); assay: MSD
human FcγRIIIb (human) [18] = biological target: human FcγRIIIb (human) (UniProt O75015); assay: MSD [cont'd]
[19] = biological target: human FcγRIIa (H131 allele) (human) (UniProt P12318); assay: MSD [cont'd]
[20] = biological target: human FcγRIIa (R131 allele) (human) (UniProt P12318); assay: MSD [cont'd]
human FcRn (human) [21] = biological target: human FcRn (human) (UniProt P55899); assay: MSD [cont'd]
human FcγRIIb (human) [22] = biological target: human FcγRIIb (human) (UniProt P31994); assay: MSD [cont'd]
[23] = biological target: human FcγRIIIa (F158 allele) (human) (UniProt P08637)

Sequence of human C1q (human) (P02745 23-245 limits assumed, chain 1 of 3): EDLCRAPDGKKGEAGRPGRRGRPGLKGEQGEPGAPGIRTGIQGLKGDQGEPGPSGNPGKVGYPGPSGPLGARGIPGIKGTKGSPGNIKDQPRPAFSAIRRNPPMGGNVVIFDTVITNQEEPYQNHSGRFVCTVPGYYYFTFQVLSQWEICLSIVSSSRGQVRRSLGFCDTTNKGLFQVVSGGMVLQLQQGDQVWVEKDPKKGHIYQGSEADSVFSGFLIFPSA
Sequence of human C1q (human) (P02746 28-253 limits assumed, chain 2 of 3, further chain): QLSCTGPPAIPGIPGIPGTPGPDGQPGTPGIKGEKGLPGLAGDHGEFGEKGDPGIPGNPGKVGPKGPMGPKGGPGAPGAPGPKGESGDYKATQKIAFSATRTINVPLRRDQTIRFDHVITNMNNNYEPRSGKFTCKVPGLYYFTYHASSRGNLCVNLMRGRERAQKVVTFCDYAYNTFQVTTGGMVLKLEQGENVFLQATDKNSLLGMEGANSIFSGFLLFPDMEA
Sequence of human C1q (human) (P02747 29-245 limits assumed, chain 3 of 3, further chain): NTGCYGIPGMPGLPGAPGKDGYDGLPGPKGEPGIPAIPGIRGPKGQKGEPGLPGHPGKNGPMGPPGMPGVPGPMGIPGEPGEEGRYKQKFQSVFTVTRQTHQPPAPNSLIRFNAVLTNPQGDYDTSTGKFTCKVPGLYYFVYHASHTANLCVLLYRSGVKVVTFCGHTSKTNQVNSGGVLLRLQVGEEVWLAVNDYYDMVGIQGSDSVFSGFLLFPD
Sequence of human FcRn (human) (P55899 24-297 limits assumed, chain 1 of 2): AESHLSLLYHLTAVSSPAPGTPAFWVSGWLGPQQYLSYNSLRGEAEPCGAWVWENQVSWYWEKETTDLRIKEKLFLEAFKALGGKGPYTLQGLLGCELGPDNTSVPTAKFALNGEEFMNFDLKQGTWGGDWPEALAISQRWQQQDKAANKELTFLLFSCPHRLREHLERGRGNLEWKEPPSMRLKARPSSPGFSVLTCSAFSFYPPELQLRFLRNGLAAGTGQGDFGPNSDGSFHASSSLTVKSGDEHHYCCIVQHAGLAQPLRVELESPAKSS
Sequence of human FcRn (human) (chain, as listed by the source limits assumed, chain 2 of 2): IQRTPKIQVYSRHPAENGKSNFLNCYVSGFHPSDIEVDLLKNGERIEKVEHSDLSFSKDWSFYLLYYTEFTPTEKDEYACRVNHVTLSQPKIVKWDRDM
Sequence of human FcγRIIb (human) (P31994 43-217 limits assumed): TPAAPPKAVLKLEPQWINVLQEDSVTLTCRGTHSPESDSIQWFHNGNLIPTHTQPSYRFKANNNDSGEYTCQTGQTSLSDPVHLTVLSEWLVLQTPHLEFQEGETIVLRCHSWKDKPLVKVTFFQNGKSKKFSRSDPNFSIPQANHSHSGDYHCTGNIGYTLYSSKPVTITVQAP
Sequence of human FcγRIIa (H131 allele) (human) (P12318 34-218 limits assumed): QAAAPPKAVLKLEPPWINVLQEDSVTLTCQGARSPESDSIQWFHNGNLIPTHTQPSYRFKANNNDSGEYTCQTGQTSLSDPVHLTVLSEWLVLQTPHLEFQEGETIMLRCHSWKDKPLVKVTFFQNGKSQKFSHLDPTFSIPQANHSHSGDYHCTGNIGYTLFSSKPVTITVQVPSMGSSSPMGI
Sequence of human FcγRIIIa (V158 allele) (human) (P08637 17-208 F176V limits assumed): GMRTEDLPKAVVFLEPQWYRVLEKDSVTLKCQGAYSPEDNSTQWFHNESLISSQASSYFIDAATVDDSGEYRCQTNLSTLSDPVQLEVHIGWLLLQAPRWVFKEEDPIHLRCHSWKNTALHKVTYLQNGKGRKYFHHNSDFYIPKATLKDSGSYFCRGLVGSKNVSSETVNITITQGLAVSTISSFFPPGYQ
Sequence of human FcγRIIIa (F158 allele) (human) (P08637 17-208 limits assumed): as the sequence (P08637 17-208 F176V limits assumed) above, with V160F counted along it
Sequence of human FcγRIIIb (human) (O75015 17-200 limits assumed): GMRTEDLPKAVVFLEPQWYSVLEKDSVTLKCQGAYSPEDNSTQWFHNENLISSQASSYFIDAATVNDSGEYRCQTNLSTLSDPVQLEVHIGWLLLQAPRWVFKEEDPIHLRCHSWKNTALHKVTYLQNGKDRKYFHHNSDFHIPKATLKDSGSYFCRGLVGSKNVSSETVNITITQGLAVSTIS
Sequence of human FcγRIIa (R131 allele) (human) (P12318 34-218 H167R limits assumed): as the sequence (P12318 34-218 limits assumed) above, with H134R counted along it

## A431G (antibody)
Human FcRn (human) [1]
  fold-change to WT Fc: 0.916 fold
[2]
  fold-change to WT Fc: 1.76 fold
[3]
  fold-change to WT Fc: 1.38 fold
Human FcγRIIb (human) [4]
  fold-change to WT Fc: 1.5 fold
Human C1q (human)
  fold-change to WT Fc: 0.824 fold
[5]
  fold-change to WT Fc: 1.61 fold
[6]
  fold-change to WT Fc: 1.23 fold

## K334A_Q295E_S298N (antibody)
Human FcγRIIIb (human) [7]
  fold-change in binding vs wild-type IgG1: 0.93
[8]
  fold-change in binding vs wild-type IgG1: 0.37
[9]
  fold-change in binding vs wild-type IgG1: 0.28
[10]
  fold-change in binding vs wild-type IgG1: 0.09
Human FcγRIIb (human) [11]
  fold-change in binding vs wild-type IgG1: 0.47
Human FcRn (human) [12]
  fold-change in binding vs wild-type IgG1: 0.91
[13]
  fold-change in binding vs wild-type IgG1: 0.22

## R292P_G446E (antibody)
Human FcRn (human) [1]
  fold-change to WT Fc: 0.884 fold
[2]
  fold-change to WT Fc: 0.628 fold
[3]
  fold-change to WT Fc: 0.45 fold
Human FcγRIIb (human) [4]
  fold-change to WT Fc: 0.562 fold
Human C1q (human)
  fold-change to WT Fc: 0.391 fold
[5]
  fold-change to WT Fc: 0.916 fold
[6]
  fold-change to WT Fc: 0.779 fold

## G236A_Q295E_S298N (antibody)
Human FcγRIIIb (human) [7]
  fold-change in binding vs wild-type IgG1: 0.76
[8]
  fold-change in binding vs wild-type IgG1: 0.35
[9]
  fold-change in binding vs wild-type IgG1: 0.65
[10]
  fold-change in binding vs wild-type IgG1: 0.07
Human FcγRIIb (human) [11]
  fold-change in binding vs wild-type IgG1: 0.23
Human FcRn (human) [12]
  fold-change in binding vs wild-type IgG1: 0.93
[13]
  fold-change in binding vs wild-type IgG1: 1.82

## G236A_Y300L-afuc (antibody)
[14]
  FcγR reporter signaling, fold to wt-fucose [cont'd]: 3.49 fold
Human FcγRIIIb (human) [15]
  fold-change (reference not given): 2.6 fold
[16]
  fold-change (reference not given): 13.7 fold
[2]
  fold-change (reference not given): 14.9 fold
[3]
  fold-change (reference not given): 4 fold
Human FcγRIIb (human) [4]
  fold-change (reference not given): 0.9 fold
[17]
  fold-change (reference not given): 30.1 fold
Human FcγRIIIb (human) [18]
  fold to wt-fucose: 2.55 fold
[5]
  fold to wt-fucose: 13.7 fold
[19]
  fold to wt-fucose: 14.9 fold
[20]
  fold to wt-fucose: 3.95 fold
Human FcRn (human) [21]
  fold to wt-fucose: 0.92 fold
Human FcγRIIb (human) [22]
  fold to wt-fucose: 0.93 fold
[6]
  fold to wt-fucose: 30.1 fold

## G236A_E272Y_S298N (antibody)
Human FcγRIIIb (human) [7]
  fold-change in binding vs wild-type IgG1: 0.62
[8]
  fold-change in binding vs wild-type IgG1: 0.31
[9]
  fold-change in binding vs wild-type IgG1: 0.38
[10]
  fold-change in binding vs wild-type IgG1: 0.06
Human FcγRIIb (human) [11]
  fold-change in binding vs wild-type IgG1: 0.19
Human FcRn (human) [12]
  fold-change in binding vs wild-type IgG1: 0.98
[13]
  fold-change in binding vs wild-type IgG1: 0.63

## G236A_K334A_Q295E-afuc (antibody)
[14]
  FcγR reporter signaling, fold to wt-fucose [cont'd]: 5.54 fold
[23]
  FcγR reporter signaling, fold to wt-fucose [cont'd]: 12.7 fold
Human FcγRIIIb (human) [18]
  fold to wt-fucose: 1.62 fold
[5]
  fold to wt-fucose: 7.93 fold
[19]
  fold to wt-fucose: 5.32 fold
[20]
  fold to wt-fucose: 3.75 fold
Human FcRn (human) [21]
  fold to wt-fucose: 1.11 fold
Human FcγRIIb (human) [22]
  fold to wt-fucose: 0.55 fold
[6]
  fold to wt-fucose: 27.5 fold

## G236A_A330L_I332E (antibody)
Human FcRn (human) [1]
  fold-change to WT Fc: 0.937 fold
[2]
  fold-change to WT Fc: 3.6 fold
Human FcγRIIb (human) [4]
  fold-change to WT Fc: 0.605 fold
Human C1q (human)
  fold-change to WT Fc: -0.004 fold

## G236S-afuc (antibody)
[14]
  FcγR reporter signaling, fold to wt-fucose [cont'd]: 2.86 fold
Human FcγRIIIb (human) [18]
  fold to wt-fucose: 1.37 fold
[5]
  fold to wt-fucose: 4.63 fold
[19]
  fold to wt-fucose: 7.37 fold
[20]
  fold to wt-fucose: 4.39 fold
Human FcRn (human) [21]
  fold to wt-fucose: 0.85 fold
Human FcγRIIb (human) [22]
  fold to wt-fucose: 1.08 fold
[6]
  fold to wt-fucose: 10.6 fold

## G236A_R292P_A431G (antibody)
Human FcRn (human) [1]
  fold-change to WT Fc: 0.674 fold
[2]
  fold-change to WT Fc: 5.21 fold
[3]
  fold-change to WT Fc: 0.939 fold
Human FcγRIIb (human) [4]
  fold-change to WT Fc: 0.511 fold
Human C1q (human)
  fold-change to WT Fc: 0.1 fold
[5]
  fold-change to WT Fc: 0.394 fold
[6]
  fold-change to WT Fc: 0.569 fold

## G236A_L328V_Q295E-afuc (antibody)
Human FcγRIIIb (human) [15]
  fold-change (reference not given): 2.4 fold
[16]
  fold-change (reference not given): 7.4 fold
[2]
  fold-change (reference not given): 6.7 fold
[3]
  fold-change (reference not given): 9.6 fold
[17]
  fold-change (reference not given): 11.8 fold

## G236S_G420V_G446E_L309T-afuc (antibody)
[14]
  FcγR reporter signaling, fold to wt-fucose [cont'd]: 4 fold
[23]
  FcγR reporter signaling, fold to wt-fucose [cont'd]: 4.41 fold
Human FcγRIIIb (human) [18]
  fold to wt-fucose: 0.86 fold
[5]
  fold to wt-fucose: 1.99 fold
[19]
  fold to wt-fucose: 3.62 fold
[20]
  fold to wt-fucose: 1.7 fold
Human FcRn (human) [21]
  fold to wt-fucose: 0.77 fold
Human FcγRIIb (human) [22]
  fold to wt-fucose: 0.44 fold
[6]
  fold to wt-fucose: 3.35 fold

Reference: patent publication US20260184814A1, “BROADLY NE[…] INFLUENZA NEURAMINIDASE” (priority 2022, published 2026)
